# US20090149389A1 (PURDUE RESEARCH FOUNDATION, published 2009)
# T1: PhKγ2 (h) (human (h), UniProt P15735 1-406)
# T1 sequence (looked up): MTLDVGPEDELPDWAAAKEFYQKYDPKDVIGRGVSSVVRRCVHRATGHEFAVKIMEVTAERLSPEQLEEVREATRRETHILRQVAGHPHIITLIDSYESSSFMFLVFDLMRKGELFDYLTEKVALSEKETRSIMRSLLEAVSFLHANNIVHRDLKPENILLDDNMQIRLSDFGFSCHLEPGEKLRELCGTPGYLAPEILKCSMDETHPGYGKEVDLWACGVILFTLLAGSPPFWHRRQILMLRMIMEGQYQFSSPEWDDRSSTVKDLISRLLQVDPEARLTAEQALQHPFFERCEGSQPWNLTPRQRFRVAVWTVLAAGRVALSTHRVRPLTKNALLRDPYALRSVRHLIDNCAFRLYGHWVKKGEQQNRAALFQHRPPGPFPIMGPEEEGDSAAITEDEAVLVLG
# T2: Aurora-A (h) (human (h), UniProt O14965 1-403)
# T2 sequence (looked up): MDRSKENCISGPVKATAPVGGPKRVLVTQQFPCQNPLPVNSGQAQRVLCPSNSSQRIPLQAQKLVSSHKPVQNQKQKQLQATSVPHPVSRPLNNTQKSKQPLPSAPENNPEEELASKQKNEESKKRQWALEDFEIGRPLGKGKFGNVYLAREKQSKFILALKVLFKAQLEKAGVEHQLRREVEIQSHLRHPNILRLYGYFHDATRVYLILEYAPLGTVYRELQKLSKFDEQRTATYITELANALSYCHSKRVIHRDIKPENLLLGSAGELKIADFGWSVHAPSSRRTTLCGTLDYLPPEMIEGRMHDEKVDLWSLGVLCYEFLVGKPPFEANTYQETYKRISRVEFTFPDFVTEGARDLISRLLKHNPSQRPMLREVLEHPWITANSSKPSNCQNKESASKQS
# T3: EphA2 (h) (human (h), UniProt P29317 591-976, limits assumed)
# T3 sequence (looked up): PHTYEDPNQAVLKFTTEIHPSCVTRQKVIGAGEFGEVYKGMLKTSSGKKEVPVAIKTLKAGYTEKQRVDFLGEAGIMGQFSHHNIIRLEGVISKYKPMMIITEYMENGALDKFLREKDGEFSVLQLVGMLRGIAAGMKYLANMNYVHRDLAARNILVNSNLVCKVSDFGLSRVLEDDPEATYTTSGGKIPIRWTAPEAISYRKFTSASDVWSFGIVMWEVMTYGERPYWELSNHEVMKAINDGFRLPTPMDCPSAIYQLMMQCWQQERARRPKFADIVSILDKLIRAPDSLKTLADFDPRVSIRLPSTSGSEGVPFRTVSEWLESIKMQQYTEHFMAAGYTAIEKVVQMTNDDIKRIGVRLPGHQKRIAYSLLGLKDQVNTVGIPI
# T4: PRAK (UniProt Q8IW41 1-473, limits assumed)
# T4 sequence (looked up): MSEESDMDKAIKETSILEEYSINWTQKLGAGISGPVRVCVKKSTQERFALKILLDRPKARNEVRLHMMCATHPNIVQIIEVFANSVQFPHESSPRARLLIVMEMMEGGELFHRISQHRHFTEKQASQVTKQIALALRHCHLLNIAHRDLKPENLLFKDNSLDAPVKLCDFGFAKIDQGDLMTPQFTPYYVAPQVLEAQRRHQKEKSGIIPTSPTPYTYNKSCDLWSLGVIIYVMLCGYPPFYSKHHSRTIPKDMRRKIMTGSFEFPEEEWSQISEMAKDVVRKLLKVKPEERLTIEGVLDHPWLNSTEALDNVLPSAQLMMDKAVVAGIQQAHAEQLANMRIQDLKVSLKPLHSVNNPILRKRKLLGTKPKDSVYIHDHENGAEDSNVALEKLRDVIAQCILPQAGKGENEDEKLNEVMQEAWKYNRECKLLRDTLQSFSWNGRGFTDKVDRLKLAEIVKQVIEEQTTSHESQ
# Tests used:
# Assay in all cases: cell-based or functional assay
# PhKγ2 (h) = target: T1, PhKγ2 (h)
# MLCK (h) = MLCK (h) (human (h))
# PKA (h) = PKA (h) (human (h), UniProt P17612 1-351)
# Lck (h) = Lck (h) (human (h), UniProt P06239 1-509)
# Lck (h), sequence (P06239 whole entry): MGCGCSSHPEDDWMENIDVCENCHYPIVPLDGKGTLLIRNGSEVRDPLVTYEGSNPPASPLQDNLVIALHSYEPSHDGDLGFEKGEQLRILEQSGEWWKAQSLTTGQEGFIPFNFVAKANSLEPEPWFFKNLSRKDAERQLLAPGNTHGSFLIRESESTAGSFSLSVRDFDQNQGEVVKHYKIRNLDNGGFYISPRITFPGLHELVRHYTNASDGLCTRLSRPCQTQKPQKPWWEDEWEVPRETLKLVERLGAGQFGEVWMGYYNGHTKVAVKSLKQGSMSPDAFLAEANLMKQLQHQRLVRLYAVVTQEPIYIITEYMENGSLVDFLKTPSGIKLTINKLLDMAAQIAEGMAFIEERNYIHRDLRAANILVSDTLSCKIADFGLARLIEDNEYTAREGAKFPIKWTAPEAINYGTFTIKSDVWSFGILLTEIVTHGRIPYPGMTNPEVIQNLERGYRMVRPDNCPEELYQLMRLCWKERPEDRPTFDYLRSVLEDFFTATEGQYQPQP
# cKit (h) = cKit (h) (human (h), UniProt P10721 544-976, limits assumed)
# cKit (h), sequence (P10721 544-976 limits assumed): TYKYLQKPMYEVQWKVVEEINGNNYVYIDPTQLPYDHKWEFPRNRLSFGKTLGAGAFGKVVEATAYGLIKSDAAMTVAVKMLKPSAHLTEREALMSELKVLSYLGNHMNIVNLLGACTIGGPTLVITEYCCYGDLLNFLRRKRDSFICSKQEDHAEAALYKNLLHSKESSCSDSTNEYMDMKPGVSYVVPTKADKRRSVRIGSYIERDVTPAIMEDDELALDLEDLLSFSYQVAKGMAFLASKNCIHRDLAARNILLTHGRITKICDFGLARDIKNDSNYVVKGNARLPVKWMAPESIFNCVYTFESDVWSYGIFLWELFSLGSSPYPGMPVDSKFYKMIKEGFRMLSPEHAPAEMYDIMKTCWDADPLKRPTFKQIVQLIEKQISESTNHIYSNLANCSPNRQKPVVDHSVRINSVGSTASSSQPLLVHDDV
# MAPKI (h) = MAPKI (h) (human (h), UniProt P28482 1-360, limits assumed)
# MAPKI (h), sequence (P28482 whole entry): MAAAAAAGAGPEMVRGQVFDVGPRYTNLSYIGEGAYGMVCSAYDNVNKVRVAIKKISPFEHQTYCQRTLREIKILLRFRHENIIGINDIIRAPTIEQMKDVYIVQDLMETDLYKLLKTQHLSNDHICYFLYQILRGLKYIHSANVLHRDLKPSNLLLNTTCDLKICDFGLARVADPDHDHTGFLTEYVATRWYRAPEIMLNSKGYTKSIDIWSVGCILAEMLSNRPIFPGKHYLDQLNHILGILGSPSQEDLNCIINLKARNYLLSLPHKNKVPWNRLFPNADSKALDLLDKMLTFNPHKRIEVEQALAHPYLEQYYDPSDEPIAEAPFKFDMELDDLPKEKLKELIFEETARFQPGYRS
# FGFR1 (h) = FGFR1 (h) (human (h), UniProt P11362 456-765, limits assumed)
# FGFR1 (h), sequence (P11362 456-765 limits assumed): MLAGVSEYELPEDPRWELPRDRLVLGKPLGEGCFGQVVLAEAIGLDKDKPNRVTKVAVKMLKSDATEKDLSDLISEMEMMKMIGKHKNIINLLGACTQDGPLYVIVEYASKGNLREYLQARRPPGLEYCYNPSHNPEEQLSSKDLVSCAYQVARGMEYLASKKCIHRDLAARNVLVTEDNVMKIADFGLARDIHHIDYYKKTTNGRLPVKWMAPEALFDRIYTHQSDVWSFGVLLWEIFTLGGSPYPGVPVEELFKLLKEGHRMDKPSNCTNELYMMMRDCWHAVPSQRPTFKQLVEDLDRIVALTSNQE
# JAK3 (h) = JAK3 (h) (human (h), UniProt P52333 781-1124, limits assumed)
# JAK3 (h), sequence (P52333 781-1124 limits assumed): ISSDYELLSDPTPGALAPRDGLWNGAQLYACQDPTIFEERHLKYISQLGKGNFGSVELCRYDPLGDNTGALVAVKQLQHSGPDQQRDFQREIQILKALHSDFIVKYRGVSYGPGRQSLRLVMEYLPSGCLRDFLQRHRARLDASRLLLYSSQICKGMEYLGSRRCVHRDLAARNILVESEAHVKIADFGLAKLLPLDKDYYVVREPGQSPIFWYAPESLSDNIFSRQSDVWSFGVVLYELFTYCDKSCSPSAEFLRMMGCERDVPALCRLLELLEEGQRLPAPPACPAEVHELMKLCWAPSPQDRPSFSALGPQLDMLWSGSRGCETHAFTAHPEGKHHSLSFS
# MAPKAP-K2 (h) = MAPKAP-K2 (h) (human (h), UniProt P49137 46-400, limits assumed)
# MAPKAP-K2 (h), sequence (P49137 46-400 limits assumed): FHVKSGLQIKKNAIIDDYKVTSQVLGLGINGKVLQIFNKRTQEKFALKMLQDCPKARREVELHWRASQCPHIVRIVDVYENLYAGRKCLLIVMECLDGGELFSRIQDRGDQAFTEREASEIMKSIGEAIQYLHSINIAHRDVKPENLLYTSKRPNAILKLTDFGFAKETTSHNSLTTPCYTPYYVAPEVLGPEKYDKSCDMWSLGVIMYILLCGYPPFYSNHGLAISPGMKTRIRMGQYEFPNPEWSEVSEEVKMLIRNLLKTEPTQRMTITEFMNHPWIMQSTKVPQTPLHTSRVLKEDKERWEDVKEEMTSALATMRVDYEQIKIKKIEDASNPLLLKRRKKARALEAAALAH
# Aurora-A (h) = target: T2, Aurora-A (h)
# GSK3β (h) = GSK3β (h) (human (h), UniProt P49841 1-420)
# GSK3β (h), sequence (P49841 whole entry): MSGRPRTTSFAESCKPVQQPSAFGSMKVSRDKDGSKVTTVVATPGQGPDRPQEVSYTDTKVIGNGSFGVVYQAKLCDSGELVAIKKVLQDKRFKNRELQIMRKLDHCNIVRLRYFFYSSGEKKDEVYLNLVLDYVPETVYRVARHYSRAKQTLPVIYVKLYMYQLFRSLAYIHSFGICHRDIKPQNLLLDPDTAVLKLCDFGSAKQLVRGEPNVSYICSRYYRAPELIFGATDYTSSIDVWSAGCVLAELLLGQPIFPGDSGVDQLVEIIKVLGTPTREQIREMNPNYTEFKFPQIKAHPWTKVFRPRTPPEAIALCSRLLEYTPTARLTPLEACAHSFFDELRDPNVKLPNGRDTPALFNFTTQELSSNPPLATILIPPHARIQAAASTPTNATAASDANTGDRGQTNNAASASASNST
# CaMKI (h) = CaMKI (h) (human (h), UniProt Q14012 1-370, limits assumed)
# CaMKI (h), sequence (Q14012 whole entry): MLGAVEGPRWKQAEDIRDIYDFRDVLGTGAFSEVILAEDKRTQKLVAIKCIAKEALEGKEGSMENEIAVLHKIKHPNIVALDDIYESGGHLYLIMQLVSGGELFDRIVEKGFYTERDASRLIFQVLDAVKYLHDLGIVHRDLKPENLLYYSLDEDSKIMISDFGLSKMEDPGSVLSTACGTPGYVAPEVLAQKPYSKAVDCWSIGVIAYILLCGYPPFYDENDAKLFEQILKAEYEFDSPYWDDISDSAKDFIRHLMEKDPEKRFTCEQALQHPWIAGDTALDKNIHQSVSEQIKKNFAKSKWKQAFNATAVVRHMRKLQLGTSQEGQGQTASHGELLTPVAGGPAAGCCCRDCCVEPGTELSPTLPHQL
# EphA2 (h) = target: T3, EphA2 (h)
# ROCK-1 (h) = ROCK-1 (h) (human (h), UniProt Q13464 17-535, limits assumed)
# ROCK-1 (h), sequence (Q13464 17-535 limits assumed): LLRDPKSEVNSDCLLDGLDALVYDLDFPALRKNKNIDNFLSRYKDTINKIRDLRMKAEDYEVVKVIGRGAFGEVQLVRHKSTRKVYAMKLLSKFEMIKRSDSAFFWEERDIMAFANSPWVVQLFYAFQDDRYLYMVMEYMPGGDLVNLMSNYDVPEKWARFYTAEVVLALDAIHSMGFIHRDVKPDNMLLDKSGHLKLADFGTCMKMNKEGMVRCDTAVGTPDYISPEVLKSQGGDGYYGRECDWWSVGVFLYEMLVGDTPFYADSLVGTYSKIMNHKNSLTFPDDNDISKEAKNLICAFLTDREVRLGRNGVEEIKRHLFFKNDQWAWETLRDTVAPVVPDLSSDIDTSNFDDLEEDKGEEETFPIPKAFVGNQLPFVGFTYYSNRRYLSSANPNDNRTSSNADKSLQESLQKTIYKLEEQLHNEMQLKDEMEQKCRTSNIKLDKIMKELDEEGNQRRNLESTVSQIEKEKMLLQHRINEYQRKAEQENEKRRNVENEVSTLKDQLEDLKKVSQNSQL
# Rsk2 (h) = Rsk2 (h) (human (h), UniProt P51812 1-740)
# Rsk2 (h), sequence (P51812 whole entry): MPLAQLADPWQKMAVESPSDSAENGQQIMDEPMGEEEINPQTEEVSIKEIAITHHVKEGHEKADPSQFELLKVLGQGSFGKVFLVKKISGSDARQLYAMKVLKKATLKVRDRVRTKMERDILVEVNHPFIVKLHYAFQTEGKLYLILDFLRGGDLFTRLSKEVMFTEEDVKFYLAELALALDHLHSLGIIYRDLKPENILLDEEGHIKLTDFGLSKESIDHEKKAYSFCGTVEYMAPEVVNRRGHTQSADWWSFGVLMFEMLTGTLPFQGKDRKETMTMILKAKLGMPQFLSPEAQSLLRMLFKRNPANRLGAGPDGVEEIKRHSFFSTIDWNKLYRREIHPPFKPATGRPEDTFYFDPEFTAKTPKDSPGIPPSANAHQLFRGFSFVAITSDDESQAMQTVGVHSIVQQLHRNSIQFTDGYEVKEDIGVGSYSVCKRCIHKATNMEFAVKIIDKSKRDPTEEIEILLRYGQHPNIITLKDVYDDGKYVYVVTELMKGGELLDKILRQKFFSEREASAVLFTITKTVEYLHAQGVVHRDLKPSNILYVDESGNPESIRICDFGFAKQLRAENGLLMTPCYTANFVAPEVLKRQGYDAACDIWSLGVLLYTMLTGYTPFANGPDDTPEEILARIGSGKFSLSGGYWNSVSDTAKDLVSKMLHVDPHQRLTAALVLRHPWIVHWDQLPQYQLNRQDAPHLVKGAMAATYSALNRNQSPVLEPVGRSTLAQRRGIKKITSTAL
# PRAK = target: T4, PRAK
binder,measurement,setting,value
FAKLAARLYRKALARQLGVAA,Profile-1 @ = 100 µm (kinase profiler assay),PhKγ2 (h),20
same,Profile-1 @ = 100 µm (kinase profiler assay),MLCK (h),1
same,Profile-1 @ = 100 µm (kinase profiler assay),PKA (h),76
same,Profile-1 @ = 100 µm (kinase profiler assay),Lck (h),493
same,Profile-1 @ = 100 µm (kinase profiler assay),cKit (h),42
same,Profile-1 @ = 100 µm (kinase profiler assay),MAPKI (h),104
same,Profile-1 @ = 100 µm (kinase profiler assay),FGFR1 (h),22
same,Profile-1 @ = 100 µm (kinase profiler assay),JAK3 (h),102
same,Profile-1 @ = 100 µm (kinase profiler assay),MAPKAP-K2 (h),5
same,Profile-1 @ = 100 µm (kinase profiler assay),Aurora-A (h),65
same,Profile-1 @ = 100 µm (kinase profiler assay),GSK3β (h),188
same,Profile-1 @ = 100 µm (kinase profiler assay),CaMKI (h),0
same,Profile-1 @ = 100 µm (kinase profiler assay),EphA2 (h),32
same,Profile-1 @ = 100 µm (kinase profiler assay),ROCK-1 (h),25
same,Profile-1 @ = 100 µm (kinase profiler assay),Rsk2 (h),-1
same,Profile-1 @ = 100 µm (kinase profiler assay),PRAK,131
